In assay [1] the target is T1, HSP90 (endogenous, from MDA-MB-231 cells and MDA-MB-231 xenograft tumor lysates) (human, UniProt P08238 2-724).
T1 construct: The isoform is not resolved in these experiments; HSP90α (P07900) may also be present; also called cell surface HSP90
Kind of assay: immunoprecipitation from MDA-MB-231 xenograft tumor lysates, immunoblot with commercial HSP90 antibody. As for the experimental part:
RIPA lysates of xenograft tumor pieces were used for immunoprecipitation with 15 μg of HCAb1 and HCAb2. Immunoprecipitated HSP90β protein was detected on an immunoblot using commercial HSP90 antibody. […] Equal amounts of HCAb1 and HCAb2 were pulled down as detected by anti-mouse IgG antibody.
Xenograft tumor pieces were placed in 500 μL of 1% Triton™ X-100+0.1% SDS/PBS lysis buffer supplemented with 0.2 mM sodium orthovanadate and fresh protease inhibitor cocktail (1:100) and homogenized using polytron homogenizer for 30 sec −1 min on ice. Homogenates were spun at 14,000 rpm for 20 min at 4° C. and supernatants were used for immunoprecipitation.
We also wanted to determine if HCAb2 can bind to HSP90 from the xenograft tumor lysates. Xenograft tumor pieces were homogenized and incubated with exogenous HCAb1 and HCAb2. Immunoprecipitated proteins were detected using the commercial HSP90 antibody. […] In summary, we observed that HCAb2 bound preferentially to a small population of MDA-MB-231 xenograft tumor cells in comparison to the normal mouse tissues and also pulled down HSP90 from xenograft tumor lysates.
In general terms: A western blot detects proteins with antibodies after separation by electrophoresis.

The target in assay [2] is T2, Recombinant human HSP90β (human, UniProt P08238 1-724, limits assumed).
T2 construct: Bought protein; also called heat shock protein HSP 90-beta; HSP90AB1
T2 sequence (P08238 whole entry): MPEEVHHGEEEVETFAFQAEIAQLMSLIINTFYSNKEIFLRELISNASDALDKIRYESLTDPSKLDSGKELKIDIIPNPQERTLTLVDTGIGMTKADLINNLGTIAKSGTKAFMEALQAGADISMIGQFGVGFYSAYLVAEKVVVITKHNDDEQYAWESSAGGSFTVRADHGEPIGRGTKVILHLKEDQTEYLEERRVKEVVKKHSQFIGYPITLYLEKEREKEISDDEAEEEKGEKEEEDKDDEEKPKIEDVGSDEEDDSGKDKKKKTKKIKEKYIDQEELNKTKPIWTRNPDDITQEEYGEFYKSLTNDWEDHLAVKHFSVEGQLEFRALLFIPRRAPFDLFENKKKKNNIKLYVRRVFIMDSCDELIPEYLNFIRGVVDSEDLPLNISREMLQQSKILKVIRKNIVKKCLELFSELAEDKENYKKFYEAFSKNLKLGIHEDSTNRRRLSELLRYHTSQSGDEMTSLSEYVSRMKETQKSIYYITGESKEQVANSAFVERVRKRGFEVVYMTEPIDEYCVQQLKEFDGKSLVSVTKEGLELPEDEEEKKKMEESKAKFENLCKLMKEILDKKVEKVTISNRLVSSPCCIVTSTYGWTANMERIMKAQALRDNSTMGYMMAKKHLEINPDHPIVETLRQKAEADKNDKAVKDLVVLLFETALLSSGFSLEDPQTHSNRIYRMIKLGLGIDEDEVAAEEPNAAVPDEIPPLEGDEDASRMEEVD
Kind of assay: immunoprecipitation of recombinant HSP90β, immunoblot with commercial HSP90 antibody. On the procedure:
FIGS. 4 A and B show a validation of the target antigens of HCAb1 and HCAb2. […] Immunoprecipitation of HSP90 was performed from cytosolic and plasma membrane (PM) fractions using HCAb2. The immunoprecipitated HSP90 was detected using a commercial HSP90 antibody. […] HCAb1 and HCAb2 (5 μg each) were used to immunoprecipitate recombinant HSP90β (1 μg) resuspended in either 1% Triton X-100+0.1% SDS or 1% Triton X-100+1% SDS buffers. The immunoprecipitated HSP90β protein was detected using a commercial HSP90 antibody. Equal amounts of HCAb1 and HCAb2 were pulled down as detected by anti-mouse IgG antibody.
The list of proteins identified for HCAb2 contained both HSP90α and HSP90β isoforms with HSP90β being the highest scoring protein (Table 2). […] Of the 45 peptides, 3 peptides were unique to HSP90α, while 15 peptides were unique to HSP90β and the remaining 27 peptides were common to both the isoforms. […] To test this, we used recombinant human HSP90β (highest scoring protein from Table 2) to determine the specificity of HCAb2. HCAb1 and HCAb2 were examined for their ability to immunoprecipitate HSP90β and the presence of HSP90β detected using the commercial HSP90 antibody. […] This interaction was abolished when the SDS concentration was elevated from 0.1% to 1%. […]

The target of assay [3] is T3, Clathrin heavy chain 1 (UniProt Q00610 2-1675).
T3 construct: Endogenous protein, immunoprecipitated from cell lysate and stained in permeabilized MCF7 cells; also called CLTC
T3 sequence (Q00610 2-1675 limits assumed): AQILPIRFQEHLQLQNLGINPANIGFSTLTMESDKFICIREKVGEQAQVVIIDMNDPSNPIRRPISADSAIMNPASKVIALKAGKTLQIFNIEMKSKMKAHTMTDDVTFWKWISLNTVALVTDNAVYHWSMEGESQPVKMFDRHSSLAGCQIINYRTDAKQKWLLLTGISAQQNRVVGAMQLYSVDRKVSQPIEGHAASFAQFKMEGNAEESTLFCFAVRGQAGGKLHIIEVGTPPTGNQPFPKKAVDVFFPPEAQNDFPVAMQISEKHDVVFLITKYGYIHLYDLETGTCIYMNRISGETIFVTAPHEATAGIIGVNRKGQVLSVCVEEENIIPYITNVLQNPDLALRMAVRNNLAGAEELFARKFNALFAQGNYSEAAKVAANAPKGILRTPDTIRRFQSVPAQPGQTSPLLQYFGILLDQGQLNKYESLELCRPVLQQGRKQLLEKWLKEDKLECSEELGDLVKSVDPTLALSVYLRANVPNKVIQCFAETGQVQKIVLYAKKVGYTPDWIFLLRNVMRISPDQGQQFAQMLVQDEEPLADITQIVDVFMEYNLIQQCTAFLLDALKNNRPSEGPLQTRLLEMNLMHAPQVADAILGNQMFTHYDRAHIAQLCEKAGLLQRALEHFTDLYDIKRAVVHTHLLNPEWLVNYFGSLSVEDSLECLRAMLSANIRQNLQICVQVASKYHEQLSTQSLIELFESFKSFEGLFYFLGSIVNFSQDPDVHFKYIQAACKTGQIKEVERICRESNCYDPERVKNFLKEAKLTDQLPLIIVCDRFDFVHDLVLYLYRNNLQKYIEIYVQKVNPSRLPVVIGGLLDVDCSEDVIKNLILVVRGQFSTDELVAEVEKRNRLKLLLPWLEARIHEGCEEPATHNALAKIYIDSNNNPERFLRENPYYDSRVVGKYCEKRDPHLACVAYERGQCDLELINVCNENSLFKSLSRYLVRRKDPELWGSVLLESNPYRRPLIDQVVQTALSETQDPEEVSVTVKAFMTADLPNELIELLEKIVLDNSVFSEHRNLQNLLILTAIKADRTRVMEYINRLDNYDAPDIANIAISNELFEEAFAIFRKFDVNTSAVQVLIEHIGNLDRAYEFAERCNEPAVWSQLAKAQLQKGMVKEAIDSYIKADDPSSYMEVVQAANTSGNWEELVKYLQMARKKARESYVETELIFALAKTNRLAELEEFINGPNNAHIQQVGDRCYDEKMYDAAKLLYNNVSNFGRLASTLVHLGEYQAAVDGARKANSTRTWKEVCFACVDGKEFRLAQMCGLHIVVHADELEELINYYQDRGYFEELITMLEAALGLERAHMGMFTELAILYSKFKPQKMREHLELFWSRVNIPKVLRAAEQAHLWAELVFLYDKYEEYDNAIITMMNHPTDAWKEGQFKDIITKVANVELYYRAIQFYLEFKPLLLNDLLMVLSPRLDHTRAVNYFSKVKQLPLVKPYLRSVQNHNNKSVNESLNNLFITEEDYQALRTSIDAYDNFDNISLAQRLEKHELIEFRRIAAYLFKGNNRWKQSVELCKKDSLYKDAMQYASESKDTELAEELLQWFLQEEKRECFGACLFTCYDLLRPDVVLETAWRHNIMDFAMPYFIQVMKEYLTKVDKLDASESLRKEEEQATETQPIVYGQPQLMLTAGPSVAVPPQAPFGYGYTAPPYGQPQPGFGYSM
Kind of assay: immunoprecipitation from MDA-MB-231 1% Triton X-100 lysate, gel band identified by LC-MS/MS. On the procedure:
FIGS. 3 A and B show immunoprecipitation of respective target antigens by HCAb1 and HCAb2. 20 μg of HCAb1 and HCAb2 were used to immunoprecipitate the target antigens from 1% Triton X-100 (A) or 1% Triton X-100+0.1% SDS (B) MDA-MB-231 lysates. The immunoprecipitated proteins were run on a reducing SDS-PAGE gel and the proteins in the gel were stained with SYPRO® Ruby stain. * indicates the specific band for HCAb1 (A) and HCAb2 (B).
In order to determine the antigens recognized by the HCAbs, we performed immunoprecipitation of the antigens followed by protein identification using mass spectrometry. We chose MDA-MB-231 cell lysates since the respective target antigens for both HCAb1 (FIG. 1L) and HCAb2 (FIGS. 1C, 1I and 1O) were abundant in MDA-MB-231 cells. The immunoprecipitated proteins were run on a reducing SDS-PAGE gel and visualized using SYPRO® Ruby stain. […] Furthermore, these buffer conditions were unfavorable for HCAb1 to immunoprecipitate the band seen previously (FIG. 3A) in the buffer lacking SDS.
The specific gel bands (*) observed in FIGS. 3A and 3B were excised and the tryptic peptides were analyzed by mass spectrometry. Peptides identified from the analysis were used to search the SwissProt database to obtain the list of target proteins. Tables 1 and 2 list the top five proteins identified from the HCAb1 and HCAb2 immunoprecipitated bands, respectively. […]

The values below come from patent US20180002412A1 (UNIVERSITY OF CONNECTICUT, published 2018).

T1 sequence (P08238 2-724 limits assumed): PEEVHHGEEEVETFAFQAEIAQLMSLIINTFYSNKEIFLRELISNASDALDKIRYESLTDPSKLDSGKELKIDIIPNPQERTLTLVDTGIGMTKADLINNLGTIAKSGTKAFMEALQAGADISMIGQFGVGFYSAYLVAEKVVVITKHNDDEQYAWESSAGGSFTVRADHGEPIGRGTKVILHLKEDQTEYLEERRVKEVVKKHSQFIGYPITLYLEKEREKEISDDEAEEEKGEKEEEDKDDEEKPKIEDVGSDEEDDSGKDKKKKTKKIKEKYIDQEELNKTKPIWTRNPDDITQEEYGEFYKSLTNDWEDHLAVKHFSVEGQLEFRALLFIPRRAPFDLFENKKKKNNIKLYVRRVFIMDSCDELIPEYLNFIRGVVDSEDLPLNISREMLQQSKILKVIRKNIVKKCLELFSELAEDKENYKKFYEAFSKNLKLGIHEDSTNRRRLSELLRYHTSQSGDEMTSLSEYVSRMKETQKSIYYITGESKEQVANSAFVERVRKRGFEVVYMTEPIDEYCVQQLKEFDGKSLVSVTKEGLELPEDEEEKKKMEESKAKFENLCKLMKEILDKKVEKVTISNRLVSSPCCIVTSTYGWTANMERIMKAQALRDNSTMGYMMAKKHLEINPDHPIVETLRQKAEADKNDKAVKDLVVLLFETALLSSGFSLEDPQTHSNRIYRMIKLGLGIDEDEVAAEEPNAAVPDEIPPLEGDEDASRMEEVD

B1: HCAb1 (Fc fusion)
heavy: QVQLVQSGGGLVQPGGSLRLSCAASGFTFSSYAMSWVRQAPGKGLEWVSAISGSGGSTYYADSVKGRFTISRDNSKNTLYLQMNSLRAEDTAVYYCARQEGQWLVQIDYWGQGTLVTVSS
notes: Human VH fused to the mouse Fc domain, no light chain, bivalent; It served as the control antibody for HCAb2; also called heavy chain antibody 1; not shown: mouse Fc domain from vector pCMV6-AC-FC-S (OriGene), with any junction residues encoded by the PCR primers
Consider B1, for which the binding result in assay [1] is “no binding (tested: 15 µg of HCAb1)”; in assay [2], “no binding (tested: 1 µg HSP90β)”; in assay [3], “binds”.
